The source of these data is patent US20080280313.

Data set [1] concerns kemptide LRRASLG (Promega).
Data set [2] relates to CKI substrate DDDEESITRR (Promega).
Data set [3] concerns Syntide-2 substrate PLARTLSVAGLPGKK (Calbiochem).
The subject of data set [4] is CaM kinase II substrate (281-291) MHKNETVECLK (Calbiochem).
The subject of data set [5] is CKII substrate RRADDSDDDDD (Calbiochem).
In data set [6] the test system is CKI phosphopeptide substrate KRRRALS(p)VASLPGL (New England Biolabs).
In data set [7] the target is partially dephosphorylated α-casein (Sigma) (UniProt P02662).
Data set [8] has as its target β-casein (Sigma) (UniProt P02666).
For data set [9], the system named is CKII substrate RRREEETEEE (New England Biolabs).

Chain of β-casein (Sigma) (P02666 16-224): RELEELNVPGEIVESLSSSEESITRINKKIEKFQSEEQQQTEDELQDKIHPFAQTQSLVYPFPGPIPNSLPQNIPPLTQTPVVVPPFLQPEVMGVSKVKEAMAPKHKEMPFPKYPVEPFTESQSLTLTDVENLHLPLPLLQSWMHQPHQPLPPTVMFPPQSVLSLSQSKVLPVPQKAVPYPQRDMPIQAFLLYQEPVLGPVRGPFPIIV
Chain of partially dephosphorylated α-casein (Sigma) (P02662 16-214): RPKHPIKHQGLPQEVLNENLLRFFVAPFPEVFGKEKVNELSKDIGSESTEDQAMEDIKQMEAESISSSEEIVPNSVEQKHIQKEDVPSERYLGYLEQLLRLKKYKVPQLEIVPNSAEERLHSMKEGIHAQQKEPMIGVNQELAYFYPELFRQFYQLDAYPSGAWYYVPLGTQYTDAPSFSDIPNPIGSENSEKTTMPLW

On to “FLAGTgCKIα, N-terminal FLAG epitope tagged Toxoplasma gondii casein kinase I alpha”, for which the “kinase activity with peptide substrate” value in [1], in data set [2], in [3], in [4], in data set [5] and in data set [9] was “failed to show concentration dependent kinase activity” in each case. The Km(app) in data set [6] was determined as 80 µM; in data set [7], 4 µM; in data set [8] it was 30 µM. Further, the Vmax(app) (nmole min^-1 mg^-1) in data set [6] was found to be 26; in data set [7] it was 8; in [8], 8.

Consider “native TgCKIα, partially purified from Toxoplasma gondii tachyzoites”, for which the “kinase activity with peptide substrate” value in data set [1], in [2], in data set [3], in data set [4], in data set [5] and in [9] was “failed to show concentration dependent kinase activity” in each case. Further, the Km(app) came out at 20 µM in data set [6], 3 µM in [7] and 13 µM in data set [8].
